Experimental data: patent publication US20240150473A1 (SURROZEN OPERATING, published 2024)
One block for each binder: values may come before it.

What was measured:
[1] = molecular target: LRP5 (human (Huh-7 human liver reporter …, UniProt O75197)); assay: cell-based or functional assay
[2] = molecular target: LRP6 (human (Huh-7 human liver reporter …, UniProt O75581)); assay: cell-based or functional assay
[3] = molecular target: T1, biotinylated LRP6E3E4 (UniProt O75581 631-1246, limits assumed, biotinylated (site not stated)); assay: BLI (Octet Red 96), biotinylated LRP6E3E4 on streptavidin sensor, 1:1 fit; SEC fraction C3
T1 construct: domain: E3E4; also called Lrp6E3E4 domain; Lrp6 receptor
T1 sequence (looked up): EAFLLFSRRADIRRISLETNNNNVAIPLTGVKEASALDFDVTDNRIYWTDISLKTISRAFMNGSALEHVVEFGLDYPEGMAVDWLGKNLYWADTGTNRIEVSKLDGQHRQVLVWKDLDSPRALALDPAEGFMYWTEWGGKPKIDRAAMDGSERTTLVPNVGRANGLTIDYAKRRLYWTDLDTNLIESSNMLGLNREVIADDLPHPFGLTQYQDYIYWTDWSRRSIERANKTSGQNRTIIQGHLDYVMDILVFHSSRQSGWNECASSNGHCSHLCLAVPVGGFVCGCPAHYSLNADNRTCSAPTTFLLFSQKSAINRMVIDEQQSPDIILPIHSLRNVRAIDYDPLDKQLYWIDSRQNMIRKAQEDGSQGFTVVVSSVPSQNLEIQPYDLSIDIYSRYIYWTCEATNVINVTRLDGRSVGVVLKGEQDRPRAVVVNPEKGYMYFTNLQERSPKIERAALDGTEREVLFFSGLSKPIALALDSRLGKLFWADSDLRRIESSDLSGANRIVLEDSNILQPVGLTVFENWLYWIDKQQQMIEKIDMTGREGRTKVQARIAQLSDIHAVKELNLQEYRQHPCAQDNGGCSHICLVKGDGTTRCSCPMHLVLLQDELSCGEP
Protocol: (§1) Proteins were purified using His-Complete resin (Roche, USA) following standard procedures. Expression levels and homogeneity of VHH26 and its humanized variants were analyzed by SDS-PAGE and SEC (size-exclusion chromatography). […] Biotinylated LRP6E3E4 diluted to 50 nM in the running buffer (PBS, 0.05% Tween-20, 0.5% BSA, pH 7.2) were captured to the SA biosensor followed by dipping into wells containing the indicated VHH26 proteins at different concentrations in running buffer or into a well with only running buffer as a reference channel. KD for each binder was calculated by Octet System software, based on fitting to a 1:1 binding model. Kinetics values (Kon, Koff, KD) from each experiment was calculated from seven technical replicates of different concentrations of the molecule tested with Octet Data Analysis 9.0 (PALL ForteBio, Fremont, CA).
(§2) Central fractions of each of these peaks were examined by Octect-BLI for their ability interact with Lrp6. Kinetics parameters such as kon, koff, and KD for interaction between VHH26 constructs and Lrp6E3E4 domain are listed in Table 2.

[4] = molecular target: T1, biotinylated LRP6E3E4; assay: BLI (Octet Red 96), biotinylated LRP6E3E4 on streptavidin sensor, 1:1 fit; SEC fraction C1
Protocol: as §1, §2

[5] = molecular target: T1, biotinylated LRP6E3E4; assay: BLI (Octet Red 96), biotinylated LRP6E3E4 on streptavidin sensor, 1:1 fit; SEC fraction G3
Protocol: as §1, §2

[6] = molecular target: T1, biotinylated LRP6E3E4; assay: BLI (Octet Red 96), biotinylated LRP6E3E4 on streptavidin sensor, 1:1 fit; SEC fraction G1
Protocol: as §1, §2

Sequence of LRP6 (human (O75581 20-1613 limits assumed): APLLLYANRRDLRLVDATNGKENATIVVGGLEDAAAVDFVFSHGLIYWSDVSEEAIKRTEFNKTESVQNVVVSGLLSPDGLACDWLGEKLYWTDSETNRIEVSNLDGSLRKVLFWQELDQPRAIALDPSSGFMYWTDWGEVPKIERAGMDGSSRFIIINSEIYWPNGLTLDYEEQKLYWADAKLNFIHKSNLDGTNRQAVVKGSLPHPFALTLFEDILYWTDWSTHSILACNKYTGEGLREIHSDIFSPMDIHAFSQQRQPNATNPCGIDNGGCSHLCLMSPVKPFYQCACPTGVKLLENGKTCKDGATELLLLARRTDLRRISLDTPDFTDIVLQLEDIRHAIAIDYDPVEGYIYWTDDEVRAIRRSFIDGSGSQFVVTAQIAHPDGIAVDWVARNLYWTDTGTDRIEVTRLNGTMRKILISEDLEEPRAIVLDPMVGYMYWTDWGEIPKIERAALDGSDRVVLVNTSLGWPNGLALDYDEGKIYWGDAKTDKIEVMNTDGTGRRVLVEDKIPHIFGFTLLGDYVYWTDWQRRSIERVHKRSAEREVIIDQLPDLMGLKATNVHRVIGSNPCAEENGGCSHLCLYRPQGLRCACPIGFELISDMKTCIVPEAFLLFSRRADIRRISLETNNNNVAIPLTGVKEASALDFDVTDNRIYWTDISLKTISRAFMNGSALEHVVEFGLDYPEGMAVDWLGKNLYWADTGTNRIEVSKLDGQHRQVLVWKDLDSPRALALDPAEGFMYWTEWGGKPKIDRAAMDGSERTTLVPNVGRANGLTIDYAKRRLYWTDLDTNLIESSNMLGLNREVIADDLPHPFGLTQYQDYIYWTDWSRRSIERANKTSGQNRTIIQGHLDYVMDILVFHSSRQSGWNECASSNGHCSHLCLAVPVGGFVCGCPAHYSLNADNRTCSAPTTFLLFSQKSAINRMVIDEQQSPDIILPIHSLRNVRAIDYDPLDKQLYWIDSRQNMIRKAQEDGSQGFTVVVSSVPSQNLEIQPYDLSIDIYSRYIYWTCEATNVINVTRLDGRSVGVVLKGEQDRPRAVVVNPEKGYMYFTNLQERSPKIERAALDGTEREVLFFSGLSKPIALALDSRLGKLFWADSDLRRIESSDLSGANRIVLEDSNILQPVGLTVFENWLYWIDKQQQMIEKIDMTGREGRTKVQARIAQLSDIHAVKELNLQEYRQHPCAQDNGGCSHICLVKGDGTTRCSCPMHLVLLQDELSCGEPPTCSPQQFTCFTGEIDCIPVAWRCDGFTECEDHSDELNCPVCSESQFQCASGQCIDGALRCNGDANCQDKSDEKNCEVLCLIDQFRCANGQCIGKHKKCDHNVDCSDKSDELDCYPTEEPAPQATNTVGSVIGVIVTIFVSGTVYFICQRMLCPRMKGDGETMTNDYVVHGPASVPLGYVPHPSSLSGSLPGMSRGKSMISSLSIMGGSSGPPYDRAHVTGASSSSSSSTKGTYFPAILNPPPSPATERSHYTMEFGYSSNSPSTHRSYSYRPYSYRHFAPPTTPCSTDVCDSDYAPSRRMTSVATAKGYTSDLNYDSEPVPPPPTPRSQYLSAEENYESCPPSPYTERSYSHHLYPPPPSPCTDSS
Sequence of LRP5 (human (O75197 32-1615 limits assumed): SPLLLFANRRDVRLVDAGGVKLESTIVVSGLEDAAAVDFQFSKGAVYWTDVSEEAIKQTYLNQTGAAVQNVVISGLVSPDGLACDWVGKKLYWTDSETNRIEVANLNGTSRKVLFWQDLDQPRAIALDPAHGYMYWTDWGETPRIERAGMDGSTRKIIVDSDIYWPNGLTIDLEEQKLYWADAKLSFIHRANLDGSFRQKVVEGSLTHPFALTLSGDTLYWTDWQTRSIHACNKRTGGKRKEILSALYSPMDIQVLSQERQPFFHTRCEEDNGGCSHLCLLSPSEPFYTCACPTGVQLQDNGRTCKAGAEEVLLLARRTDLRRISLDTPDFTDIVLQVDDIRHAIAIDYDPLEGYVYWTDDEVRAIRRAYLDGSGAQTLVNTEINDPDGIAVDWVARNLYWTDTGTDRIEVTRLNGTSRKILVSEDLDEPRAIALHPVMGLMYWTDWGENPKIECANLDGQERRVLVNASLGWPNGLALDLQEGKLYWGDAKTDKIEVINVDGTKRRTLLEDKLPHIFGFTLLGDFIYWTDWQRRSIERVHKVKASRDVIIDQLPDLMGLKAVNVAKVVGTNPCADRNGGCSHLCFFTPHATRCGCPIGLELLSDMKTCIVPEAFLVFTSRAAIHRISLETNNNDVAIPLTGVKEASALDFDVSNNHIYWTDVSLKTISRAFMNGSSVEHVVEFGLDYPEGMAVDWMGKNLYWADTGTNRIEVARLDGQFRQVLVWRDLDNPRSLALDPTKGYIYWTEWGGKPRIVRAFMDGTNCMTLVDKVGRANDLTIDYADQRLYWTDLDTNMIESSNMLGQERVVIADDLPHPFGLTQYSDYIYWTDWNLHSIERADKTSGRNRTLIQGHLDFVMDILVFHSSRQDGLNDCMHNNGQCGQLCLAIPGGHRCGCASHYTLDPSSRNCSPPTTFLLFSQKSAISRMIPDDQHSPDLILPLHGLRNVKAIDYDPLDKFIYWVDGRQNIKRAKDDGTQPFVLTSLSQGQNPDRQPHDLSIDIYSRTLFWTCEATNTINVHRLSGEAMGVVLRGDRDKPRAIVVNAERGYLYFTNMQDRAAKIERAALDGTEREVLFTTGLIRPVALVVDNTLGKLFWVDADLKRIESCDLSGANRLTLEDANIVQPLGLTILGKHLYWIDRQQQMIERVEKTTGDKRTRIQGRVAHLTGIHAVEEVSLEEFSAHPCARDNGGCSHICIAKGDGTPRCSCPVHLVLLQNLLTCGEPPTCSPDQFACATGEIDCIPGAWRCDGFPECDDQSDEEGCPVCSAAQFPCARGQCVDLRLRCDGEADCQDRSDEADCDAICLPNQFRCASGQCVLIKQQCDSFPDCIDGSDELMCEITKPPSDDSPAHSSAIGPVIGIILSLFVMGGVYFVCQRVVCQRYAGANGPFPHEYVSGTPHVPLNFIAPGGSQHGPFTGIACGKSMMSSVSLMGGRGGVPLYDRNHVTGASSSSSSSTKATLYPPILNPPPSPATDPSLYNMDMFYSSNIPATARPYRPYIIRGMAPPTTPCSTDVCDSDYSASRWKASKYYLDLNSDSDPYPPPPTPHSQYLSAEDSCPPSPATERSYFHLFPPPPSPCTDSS

B1: VHH03, Parental LALAPG (bispecific antibody)
heavy chain (R2M13 VH-IgG1 LALAPG): EVQLLQSGAEVKKPGSSVKVSCKASGGTFTYRYLHWVRQAPGQGLEWMGGIIPIFGTGNYAQKFQGRVTITADESTSTAYMELSSLRSEDTAVYYCASSMVRVPYYYGMDVWGQGTLVTVSSASTKGPSVFPLAPSSKSTSGGTAALGCLVKDYFPEPVTVSWNSGALTSGVHTFPAVLQSSGLYSLSSVVTVPSSSLGTQTYICNVNHKPSNTKVDKKVEPKSCDKTHTCPPCPAPEAAGGPSVFLFPPKPKDTLMISRTPEVTCVVVDVSHEDPEVKFNWYVDGVEVHNAKTKPREEQYNSTYRVVSVLTVLHQDWLNGKEYKCKVSNKALGAPIEKTISKAKGQPREPQVYTLPPSREEMTKNQVSLTCLVKGFYPSDIAVEWESNGQPENNYKTTPPVLDSDGSFFLYSKLTVDKSRWQQGNVFSCSVMHEALHNHYTQKSLSLSPGK
light chain (VHH03-linker-R2M13 light chain): not shown
- EC50, Super TOPFlash (STF) luciferase reporter in Huh-7 STF cells; row LRP5 / VHH03, column Parental LALAPG EC50 [1]: 0.11 nM

B2: R2M13-26 humanized LALAPG (R2M13-h26) (bispecific antibody)
heavy: EVQLLQSGAEVKKPGSSVKVSCKASGGTFTYRYLHWVRQAPGQGLEWMGGIIPIFGTGNYAQKFQGRVTITADESTSTAYMELSSLRSEDTAVYYCASSMVRVPYYYGMDVWGQGTLVTVSSASTKGPSVFPLAPSSKSTSGGTAALGCLVKDYFPEPVTVSWNSGALTSGVHTFPAVLQSSGLYSLSSVVTVPSSSLGTQTYICNVNHKPSNTKVDKKVEPKSCDKTHTCPPCPAPEAAGGPSVFLFPPKPKDTLMISRTPEVTCVVVDVSHEDPEVKFNWYVDGVEVHNAKTKPREEQYNSTYRVVSVLTVLHQDWLNGKEYKCKVSNKALGAPIEKTISKAKGQPREPQVYTLPPSREEMTKNQVSLTCLVKGFYPSDIAVEWESNGQPENNYKTTPPVLDSDGSFFLYSKLTVDKSRWQQGNVFSCSVMHEALHNHYTQKSLSLSPGK
light: not shown
- EC50, Super TOPFlash (STF) luciferase reporter in Huh-7 STF cells; row LRP6 / VHH26, column Humanized LALAPG EC50 [2]: 0.63 nM

B5: VHH26, Parental LALAPG (bispecific antibody)
heavy chain (R2M13 VH-IgG1 LALAPG): EVQLLQSGAEVKKPGSSVKVSCKASGGTFTYRYLHWVRQAPGQGLEWMGGIIPIFGTGNYAQKFQGRVTITADESTSTAYMELSSLRSEDTAVYYCASSMVRVPYYYGMDVWGQGTLVTVSSASTKGPSVFPLAPSSKSTSGGTAALGCLVKDYFPEPVTVSWNSGALTSGVHTFPAVLQSSGLYSLSSVVTVPSSSLGTQTYICNVNHKPSNTKVDKKVEPKSCDKTHTCPPCPAPEAAGGPSVFLFPPKPKDTLMISRTPEVTCVVVDVSHEDPEVKFNWYVDGVEVHNAKTKPREEQYNSTYRVVSVLTVLHQDWLNGKEYKCKVSNKALGAPIEKTISKAKGQPREPQVYTLPPSREEMTKNQVSLTCLVKGFYPSDIAVEWESNGQPENNYKTTPPVLDSDGSFFLYSKLTVDKSRWQQGNVFSCSVMHEALHNHYTQKSLSLSPGK
light chain (VHH26-linker-R2M13 light chain): not shown
- EC50, Super TOPFlash (STF) luciferase reporter in Huh-7 STF cells; row LRP6 / VHH26, column Parental LALAPG EC50 [2]: 1.1 nM

B6: VHH03, Humanized LALAPG (bispecific antibody)
heavy chain (R2M13 VH-IgG1 LALAPG): EVQLLQSGAEVKKPGSSVKVSCKASGGTFTYRYLHWVRQAPGQGLEWMGGIIPIFGTGNYAQKFQGRVTITADESTSTAYMELSSLRSEDTAVYYCASSMVRVPYYYGMDVWGQGTLVTVSSASTKGPSVFPLAPSSKSTSGGTAALGCLVKDYFPEPVTVSWNSGALTSGVHTFPAVLQSSGLYSLSSVVTVPSSSLGTQTYICNVNHKPSNTKVDKKVEPKSCDKTHTCPPCPAPEAAGGPSVFLFPPKPKDTLMISRTPEVTCVVVDVSHEDPEVKFNWYVDGVEVHNAKTKPREEQYNSTYRVVSVLTVLHQDWLNGKEYKCKVSNKALGAPIEKTISKAKGQPREPQVYTLPPSREEMTKNQVSLTCLVKGFYPSDIAVEWESNGQPENNYKTTPPVLDSDGSFFLYSKLTVDKSRWQQGNVFSCSVMHEALHNHYTQKSLSLSPGK
light chain (humanized VHH03-linker-R2M13 light chain): not shown
- EC50, Super TOPFlash (STF) luciferase reporter in Huh-7 STF cells; row LRP5 / VHH03, column Humanized LALAPG EC50 [1]: 1.8 nM

B7: VHH26-H3 (VHH)
VHH: EVQLVESGGGLVQPGGSLRLSCAGSGRIFAIYDIAWYRQAPGKGREWVAMIRPVVTEIDYADSVKGRFTISRDNSKNTVYLQMNSLRAEDTAVYYCNAKRPWGSRDEYWGQGTTVTVSS
notes: Expressed in Expi293 cells with a C-terminal hexa-histidine tag; two SEC peaks were tested separately
- Kd [3]: 422 nM
- Kd [4]: 3200 nM

Now from value to binder:

- EC50, Super TOPFlash (STF) luciferase reporter in Huh-7 STF cells; row LRP5&6 / VHH36, column Parental LALAPG EC50 (nM); one value given for both LRP5 and LRP6 [1]: 0.06 nM
- EC50, Super TOPFlash (STF) luciferase reporter in Huh-7 STF cells; row LRP5&6 / VHH36, column Parental LALAPG EC50 (nM); one value given for both LRP5 and LRP6 [2]: 0.06 nM
B3: VHH36, Parental LALAPG (bispecific antibody, human IgG1, kappa, L234A L235A)
heavy chain (R2M13 VH-IgG1 LALAPG): EVQLLQSGAEVKKPGSSVKVSCKASGGTFTYRYLHWVRQAPGQGLEWMGGIIPIFGTGNYAQKFQGRVTITADESTSTAYMELSSLRSEDTAVYYCASSMVRVPYYYGMDVWGQGTLVTVSSASTKGPSVFPLAPSSKSTSGGTAALGCLVKDYFPEPVTVSWNSGALTSGVHTFPAVLQSSGLYSLSSVVTVPSSSLGTQTYICNVNHKPSNTKVDKKVEPKSCDKTHTCPPCPAPEAAGGPSVFLFPPKPKDTLMISRTPEVTCVVVDVSHEDPEVKFNWYVDGVEVHNAKTKPREEQYNSTYRVVSVLTVLHQDWLNGKEYKCKVSNKALGAPIEKTISKAKGQPREPQVYTLPPSREEMTKNQVSLTCLVKGFYPSDIAVEWESNGQPENNYKTTPPVLDSDGSFFLYSKLTVDKSRWQQGNVFSCSVMHEALHNHYTQKSLSLSPGK
light chain (VHH36-linker-R2M13 light chain): not shown

- EC50, Super TOPFlash (STF) luciferase reporter in Huh-7 STF cells; row LRP5&6 / VHH36, column Humanized LALAPG EC50 (nM); one value given for both LRP5 and LRP6 [1]: 1.2 nM
- EC50, Super TOPFlash (STF) luciferase reporter in Huh-7 STF cells; row LRP5&6 / VHH36, column Humanized LALAPG EC50 (nM); one value given for both LRP5 and LRP6 [2]: 1.2 nM
B4: VHH36, Humanized LALAPG (bispecific antibody, human IgG1, kappa, L234A L235A)
heavy chain (R2M13 VH-IgG1 LALAPG): EVQLLQSGAEVKKPGSSVKVSCKASGGTFTYRYLHWVRQAPGQGLEWMGGIIPIFGTGNYAQKFQGRVTITADESTSTAYMELSSLRSEDTAVYYCASSMVRVPYYYGMDVWGQGTLVTVSSASTKGPSVFPLAPSSKSTSGGTAALGCLVKDYFPEPVTVSWNSGALTSGVHTFPAVLQSSGLYSLSSVVTVPSSSLGTQTYICNVNHKPSNTKVDKKVEPKSCDKTHTCPPCPAPEAAGGPSVFLFPPKPKDTLMISRTPEVTCVVVDVSHEDPEVKFNWYVDGVEVHNAKTKPREEQYNSTYRVVSVLTVLHQDWLNGKEYKCKVSNKALGAPIEKTISKAKGQPREPQVYTLPPSREEMTKNQVSLTCLVKGFYPSDIAVEWESNGQPENNYKTTPPVLDSDGSFFLYSKLTVDKSRWQQGNVFSCSVMHEALHNHYTQKSLSLSPGK
light chain (humanized VHH36-linker-R2M13 light chain): not shown

- Kd [5]: 486 nM
- Kd [6]: 687 nM
B8: VHH26-H6 (VHH)
VHH: EVQLVESGGGLVQPGGSLRLSCAGSGRIFAIYDIAWYRQAPGKGRELVAMIRPVVTEIDYADSVKGRFTISRDNSKKTVYLQMNSLRAEDTAVYYCNAKRPWGSRDEYWGQGTTVTVSS
notes: as for B7

- Kd [3]: 109 nM
- Kd [4]: 41 nM
B9: VHH26-H5 (VHH)
VHH: EVQLVESGGGLVQPGGSLRLSCAGSGRIFAIYDIAWYRQAPGKGREWVAMIRPVVTEIDYADSVKGRFTISRDNSKKTVYLQMNSLRAEDTAVYYCNAKRPWGSRDEYWGQGTTVTVSS
notes: as for B7

- Kd [5]: 192 nM
- Kd [6]: 662 nM
B10: VHH26-H4 (VHH)
VHH: EVQLVESGGGLVQPGGSLRLSCAGSGRIFAIYDIAWYRQAPGKGRELVAMIRPVVTEIDYADSVKGRFTISRDNSKNTVYLQMNSLRAEDTAVYYCNAKRPWGSRDEYWGQGTTVTVSS
notes: as for B7

- Kd [5]: 280 nM
- Kd [6]: 441 nM
B11: VHH26-H2 (VHH)
VHH: EVQLVESGGGLVQPGGSLRLSCAGSGRIFAIYDIAWYRQAPGKGLEWVAMIRPVVTEIDYADSVKGRFTISRDNSKNTVYLQMNSLRAEDTAVYYCNAKRPWGSRDEYWGQGTTVTVSS
notes: as for B7

- Kd [3]: 281 nM
B12: VHH26-H1 (VHH)
VHH: EVQLLESGGGLVQPGGSLRLSCAASGRIFAIYDIAWVRQAPGKGLEWVSMIRPVVTEIDYADSVKGRFTISRDNSKNTLYLQMNSLRAEDTAVYYCAKKRPWGSRDEYWGQGTTVTVSS
notes: as for B7
